US12139531B2, “Compositions and methods useful in promoting milk production” (The Regents of the University of California, priority 2019, dated 2024)

Experiments:
ROBO2 = target: T1, ROBO2 (Homo sapiens, UniProt Q9HCK4); experiment: ECD binding assay on Cos7 cells overexpressing Robo2; conditions: Cos7 cells overexpressing Robo2, sodium azide, 1H incubation, immunostaining
T1 construct: expressed in transfected cells; host or cells: Cos7
T1 sequence (Q9HCK4 22-1378): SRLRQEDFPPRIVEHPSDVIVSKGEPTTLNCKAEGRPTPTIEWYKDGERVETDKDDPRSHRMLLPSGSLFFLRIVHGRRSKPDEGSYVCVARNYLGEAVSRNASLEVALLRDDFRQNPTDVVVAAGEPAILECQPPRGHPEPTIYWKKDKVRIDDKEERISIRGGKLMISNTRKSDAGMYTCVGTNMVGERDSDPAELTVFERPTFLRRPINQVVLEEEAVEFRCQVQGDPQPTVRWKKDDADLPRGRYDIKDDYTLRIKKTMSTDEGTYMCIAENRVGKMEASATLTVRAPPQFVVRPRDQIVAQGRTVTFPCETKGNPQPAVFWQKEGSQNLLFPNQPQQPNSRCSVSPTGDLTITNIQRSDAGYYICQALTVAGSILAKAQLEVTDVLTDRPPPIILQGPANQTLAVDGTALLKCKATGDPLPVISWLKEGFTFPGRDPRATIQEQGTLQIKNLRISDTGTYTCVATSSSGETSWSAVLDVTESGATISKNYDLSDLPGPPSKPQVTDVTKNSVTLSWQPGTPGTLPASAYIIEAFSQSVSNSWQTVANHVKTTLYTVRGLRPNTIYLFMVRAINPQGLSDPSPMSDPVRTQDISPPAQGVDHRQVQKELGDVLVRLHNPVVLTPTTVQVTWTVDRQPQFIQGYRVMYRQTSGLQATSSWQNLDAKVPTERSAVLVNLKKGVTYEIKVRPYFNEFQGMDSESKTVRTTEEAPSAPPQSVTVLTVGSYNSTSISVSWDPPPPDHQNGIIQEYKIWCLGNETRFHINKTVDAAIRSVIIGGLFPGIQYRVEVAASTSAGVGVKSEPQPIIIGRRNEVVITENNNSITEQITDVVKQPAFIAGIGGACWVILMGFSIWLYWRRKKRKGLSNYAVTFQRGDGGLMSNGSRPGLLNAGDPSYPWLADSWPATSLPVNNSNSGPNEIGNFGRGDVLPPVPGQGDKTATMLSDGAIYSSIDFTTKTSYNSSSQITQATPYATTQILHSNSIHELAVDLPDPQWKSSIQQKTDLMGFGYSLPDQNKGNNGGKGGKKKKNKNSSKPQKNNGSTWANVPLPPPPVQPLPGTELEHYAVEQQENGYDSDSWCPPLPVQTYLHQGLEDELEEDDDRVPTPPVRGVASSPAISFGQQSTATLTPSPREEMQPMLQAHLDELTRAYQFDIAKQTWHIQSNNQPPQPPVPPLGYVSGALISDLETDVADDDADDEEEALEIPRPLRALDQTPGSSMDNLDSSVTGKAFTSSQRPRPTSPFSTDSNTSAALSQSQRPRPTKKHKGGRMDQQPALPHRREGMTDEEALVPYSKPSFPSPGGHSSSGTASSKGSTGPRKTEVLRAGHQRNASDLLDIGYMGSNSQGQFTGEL
Experimental: Soluble ROBO1 ECD fragments ROBO1-Ig2 and ROBO1-Ig5 generated in the presence of heparin were used in a dome assay. […] Because treatment with heparin had only a modest positive effect on ROBO1 ECD production and a deleterious effect on their function (FIG. 6C, E), the use of heparin to generate soluble ROBO1 ECD fragments was not pursued. The ability of a ROBO1 ECD fragment to bind ROBO2 receptors was tested by overexpressing Robo2 in Cos7 cells, treating cells with sodium azide to prevent protein internalization and then incubating cells with ROBO1-Ecto-HA 1H prior to fixation and immunostaining.

HC11 cells = experiment: HC11 dome assay (milk dome formation on differentiation in DIP media); assay type: cell-based, mouse; conditions: HC11 cells, increasing ECD concentration
Experimental: To investigate ROBO1 function during alveologenesis, Robo1 gene expression was inhibited in HC11 cells (Robo1 KD). HC11 cells are a well-established, prolactin-responsive model of lactation,^19,20. Cells in which Robo1 gene expression was not inhibited are referred to as WT or Robo1+/+ herein. To measure milk production, cells were grown to confluence and then primed by treatment with epidermal growth factor (EGF, 10 ng/ml). The EGF is administered for three days in combination with charcoal-stripped fetal bovine serum, followed by one day of charcoal-stripped fetal bovine serum in the absence of EGF. These primed cells are then differentiated by treatment with dexamethasone (1 μg/ml), insulin (5 μg/ml) and prolactin (Prl, 5 μg/ml) media (DIP media) for between 3 and 5 days (FIG. 2A). Differentiation (Dif) results in the development of milk-filled domes (FIG. 2B). […] If the cells were left undifferentiated (Undif), there was little dome formation in either WT or Robo1−/− cells (FIG. 2B). Next, tissue from Robo1 knockout mice (Robo1−/−) and wild type mice (WT or Robo1+/+) mice was analyzed. Mammary glands were harvested from pregnant day 18 WT and Robo1−/− animals and alveologenesis analyzed by serially sectioning, carmine staining and then quantifying the area occupied by alveoli in sections located at top, middle and bottom portions of the tissue.
Dome number formation in response to a titration of ROBO1 ECD fragments was quantified. […] A bovine ROBO1-Ig5 construct was also tested in this assay and, as with the rat constructs, more domes were formed in response to treatment with higher concentrations of […] (FIG. 7H).
HC11 cells were grown in RPMI 1640 media (Gibco) supplemented with 10% fetal bovine serum (BioFluid Technologies), 5 μg/mL insulin (Sigma), and 10 ng/ml epidermal growth factor (EGF; Sigma). To induce differentiation in HC11 cells, confluent plates were given fresh media (RPMI 1640 media supplemented with 5% charcoal-stripped fetal bovine serum (BioFluid Technologies), 5 μg/mL insulin, and 10 ng/ml epidermal growth factor (EGF; Sigma) for 3 days followed by 24 hours of priming in priming medium (RPMI 1640 media supplemented with 5% charcoal-stripped fetal bovine serum (BioFluid Technologies), and 5 μg/mL insulin. After priming, DIP medium (RPMI 1640 media supplemented with 5% charcoal-stripped fetal bovine serum (BioFluid Technologies), 10^−6 M dexamethasone (Sigma), 5 μg/mL insulin, and 5 μg/mL prolactin (National Hormone and Peptide program) was added with fresh media every 24 hours.

binding to ROBO2 (ROBO2): does not bind
B1: DCC-Ig2: extracellular domain of Deleted in Colorectal Cancer comprising two Ig domains, HA tagged, negative control (protein, listed as Rattus norvegicus)
chain: FTSLHFVSEPSDAVTMRGGNVLLNCSAESDRGVPVIKWKKDGLILALGMDDRKQQLPNGSLLIQNILHSRHHKPDEGLYQCEASLGDSGSIISRTAKVMVAGPLRFLSQTESITAFMGDTVLLKCEVIGDPMPTIHWQKNQQDLNPIPGDSRVVVLPSGALQISRLQPGDSGVYRCSARNPASTRTGNEAEVRILSDPGL
modifications: HA tag
notes: extracellular domain of Deleted in Colorectal Cancer comprising two Ig domains, HA tagged, negative control
dome formation in response to a titration of ECD fragments (HC11 cells): not observed
